Assay [1] concerns the target T1, human LILRB4 extracellular domain (ECD) recombinant protein (human, UniProt Q8NHJ6 22-259).
T1 construct: extracellular domain; also called LILRB4 ECD; LILRB4-ECD
The assay is described as follows: ELISA. (An ELISA detects its analyte on a solid surface through an enzyme-linked reagent.)

Assay [2] concerns the target T1, human LILRB4 extracellular domain (ECD) …. The assay is described as follows: Octet.
For assay [3], the target named is LILRB1 (human (not printed on the sheet), UniProt Q8NHL6). The assay can be described thus: LILR reporter cells on coated antibody, GFP positive (%). How it is done: (§1) FIGS. 41A-41M illustrate specific binding of h193 antibodies to LILRB4 protein. FIGS. 41A-41L illustrate the specificity of h193 antibodies determined by LILR reporter assays, in which LILR reporter cells are added to the plates coated with h193 antibodies. The binding of h193 antibodies to the ECD of the LILR member on the surface of the reporter cells induced GFP signal. FIG. 41M illustrates the specificity of an exemplary h193 antibody determined by ELISA. LILRA and LILRB recombinant proteins were coated on high absorption 96-well plates. Serial diluted (5-fold) mAb h193 were added to the coated/blocked plates and detected using goat anti-human IgG F(ab)2 conjugated HRP as secondary antibody.
Chain of LILRB1 (Q8NHL6 24-461 limits assumed): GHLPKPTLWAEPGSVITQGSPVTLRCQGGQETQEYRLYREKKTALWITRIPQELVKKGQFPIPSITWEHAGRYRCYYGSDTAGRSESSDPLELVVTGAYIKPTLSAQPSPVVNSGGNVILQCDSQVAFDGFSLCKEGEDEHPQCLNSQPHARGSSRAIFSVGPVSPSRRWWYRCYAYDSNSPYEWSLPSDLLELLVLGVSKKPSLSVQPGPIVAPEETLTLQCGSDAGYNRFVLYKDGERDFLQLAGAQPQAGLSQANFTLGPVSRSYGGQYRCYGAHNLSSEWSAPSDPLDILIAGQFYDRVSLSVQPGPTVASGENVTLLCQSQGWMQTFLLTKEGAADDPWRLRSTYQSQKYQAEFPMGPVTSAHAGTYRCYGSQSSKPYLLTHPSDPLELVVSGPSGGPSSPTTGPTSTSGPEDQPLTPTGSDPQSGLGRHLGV

Assay [4] deals with LILRB2 (human (not printed on the sheet), UniProt Q8N423). The assay is described as above. The protocol:
as §1

The target of assay [5] is LILRB3 (human (not printed on the sheet), UniProt O75022). Described as above. How it is done: as §1
Chain of LILRB3 (O75022 24-443 limits assumed): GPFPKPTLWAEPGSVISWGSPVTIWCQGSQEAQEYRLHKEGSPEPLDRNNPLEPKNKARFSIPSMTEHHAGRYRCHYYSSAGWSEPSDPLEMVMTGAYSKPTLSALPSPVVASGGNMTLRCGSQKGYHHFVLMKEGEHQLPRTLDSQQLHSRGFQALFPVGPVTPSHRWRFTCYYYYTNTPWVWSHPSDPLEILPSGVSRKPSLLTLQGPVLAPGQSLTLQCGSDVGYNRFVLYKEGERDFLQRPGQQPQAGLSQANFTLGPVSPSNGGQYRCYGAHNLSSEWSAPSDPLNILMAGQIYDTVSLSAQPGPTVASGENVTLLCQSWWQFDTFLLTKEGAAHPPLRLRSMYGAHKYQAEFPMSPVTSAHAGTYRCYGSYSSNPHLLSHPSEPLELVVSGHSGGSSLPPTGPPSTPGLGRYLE
Assay [6] addresses LILRB5 (human (not printed on the sheet), UniProt O75023). Described as above. The protocol:
as §1

Assay [7] has as its target LILRA1 (human (not printed on the sheet), UniProt O75019). The description is as above. The protocol: as §1
Assay [8] has as its target LILRA2 (human (not printed on the sheet), UniProt Q8N149). Described as above. How it is done:
as §1

The target in assay [9] is LILRA3 (human (not printed on the sheet), UniProt Q8N6C8). The description is as above. How it is done:
as §1

The target of assay [10] is LILRA4 (human (not printed on the sheet), UniProt P59901). Described as above. The protocol:
as §1

The target in assay [11] is LILRA5 (human (not printed on the sheet), UniProt A6NI73). Described as above. The protocol: as §1
Chain of LILRA5 (A6NI73 42-268 limits assumed): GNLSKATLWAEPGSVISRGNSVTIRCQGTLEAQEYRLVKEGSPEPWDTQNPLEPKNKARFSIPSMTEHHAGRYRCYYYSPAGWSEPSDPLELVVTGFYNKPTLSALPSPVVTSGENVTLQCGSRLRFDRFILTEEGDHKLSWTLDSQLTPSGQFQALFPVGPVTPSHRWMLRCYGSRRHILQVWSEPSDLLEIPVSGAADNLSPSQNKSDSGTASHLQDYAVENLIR
The target of assay [12] is LILRA6 (human (not printed on the sheet), UniProt Q6PI73). Described as above. How it is done: as §1
Chain of LILRA6 (Q6PI73 24-447 limits assumed): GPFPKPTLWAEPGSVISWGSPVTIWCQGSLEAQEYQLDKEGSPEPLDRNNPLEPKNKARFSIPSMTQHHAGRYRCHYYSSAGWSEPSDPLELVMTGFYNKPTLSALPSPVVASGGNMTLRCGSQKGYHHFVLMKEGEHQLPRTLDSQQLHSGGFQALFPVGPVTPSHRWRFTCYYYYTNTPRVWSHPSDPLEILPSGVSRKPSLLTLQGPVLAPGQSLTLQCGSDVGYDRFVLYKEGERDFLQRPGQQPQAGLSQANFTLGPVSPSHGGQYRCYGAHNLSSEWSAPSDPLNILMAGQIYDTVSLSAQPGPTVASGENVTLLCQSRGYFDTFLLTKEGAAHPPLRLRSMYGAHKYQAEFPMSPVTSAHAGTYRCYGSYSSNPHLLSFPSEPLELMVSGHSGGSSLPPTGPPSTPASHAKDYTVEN

Residue numbers refer to the chain shown, from its start. Where “and” joins values, the source holds several entries; their conditions need not be identical. Equal values may be shown once. A value given as a limit tells only on which side of the number the result lay.

Chain of LILRB2 (Q8N423 22-460 limits assumed): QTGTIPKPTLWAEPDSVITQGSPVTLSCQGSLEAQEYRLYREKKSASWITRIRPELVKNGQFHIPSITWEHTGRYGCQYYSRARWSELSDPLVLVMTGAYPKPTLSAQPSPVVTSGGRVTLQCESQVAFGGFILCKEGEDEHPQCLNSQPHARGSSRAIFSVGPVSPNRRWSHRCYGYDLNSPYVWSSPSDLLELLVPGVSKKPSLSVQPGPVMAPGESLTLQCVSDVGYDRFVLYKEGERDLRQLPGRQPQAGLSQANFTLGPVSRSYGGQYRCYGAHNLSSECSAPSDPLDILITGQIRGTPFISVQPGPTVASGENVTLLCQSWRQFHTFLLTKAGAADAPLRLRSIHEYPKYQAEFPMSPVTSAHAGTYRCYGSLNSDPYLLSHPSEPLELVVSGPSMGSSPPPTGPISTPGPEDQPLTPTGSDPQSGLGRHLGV
Chain of LILRB5 (O75023 24-458 limits assumed): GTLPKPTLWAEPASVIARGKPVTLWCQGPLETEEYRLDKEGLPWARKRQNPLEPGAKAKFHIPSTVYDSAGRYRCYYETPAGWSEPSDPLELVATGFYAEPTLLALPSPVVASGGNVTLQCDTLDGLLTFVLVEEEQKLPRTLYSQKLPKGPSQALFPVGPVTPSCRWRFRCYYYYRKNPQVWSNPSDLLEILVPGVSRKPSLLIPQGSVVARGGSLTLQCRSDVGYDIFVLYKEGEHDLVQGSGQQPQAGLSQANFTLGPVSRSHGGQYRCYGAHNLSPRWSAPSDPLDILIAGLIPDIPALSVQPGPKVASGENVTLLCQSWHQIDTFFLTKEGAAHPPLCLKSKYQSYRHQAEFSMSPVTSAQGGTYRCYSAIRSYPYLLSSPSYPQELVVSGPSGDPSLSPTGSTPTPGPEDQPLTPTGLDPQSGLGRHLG
Chain of LILRA1 (O75019 17-461 limits assumed): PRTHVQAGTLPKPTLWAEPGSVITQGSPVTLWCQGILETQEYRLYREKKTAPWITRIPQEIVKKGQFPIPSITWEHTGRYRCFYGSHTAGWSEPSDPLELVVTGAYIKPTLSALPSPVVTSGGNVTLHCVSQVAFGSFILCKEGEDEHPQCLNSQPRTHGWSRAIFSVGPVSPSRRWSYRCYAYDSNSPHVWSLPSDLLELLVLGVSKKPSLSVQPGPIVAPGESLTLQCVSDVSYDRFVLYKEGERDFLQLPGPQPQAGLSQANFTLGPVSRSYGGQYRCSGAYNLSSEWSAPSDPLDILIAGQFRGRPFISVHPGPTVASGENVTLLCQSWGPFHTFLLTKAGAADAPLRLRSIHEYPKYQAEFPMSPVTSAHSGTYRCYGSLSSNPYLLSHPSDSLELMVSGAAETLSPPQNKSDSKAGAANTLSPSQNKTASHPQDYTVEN
Chain of LILRA3 (Q8N6C8 24-439 limits assumed): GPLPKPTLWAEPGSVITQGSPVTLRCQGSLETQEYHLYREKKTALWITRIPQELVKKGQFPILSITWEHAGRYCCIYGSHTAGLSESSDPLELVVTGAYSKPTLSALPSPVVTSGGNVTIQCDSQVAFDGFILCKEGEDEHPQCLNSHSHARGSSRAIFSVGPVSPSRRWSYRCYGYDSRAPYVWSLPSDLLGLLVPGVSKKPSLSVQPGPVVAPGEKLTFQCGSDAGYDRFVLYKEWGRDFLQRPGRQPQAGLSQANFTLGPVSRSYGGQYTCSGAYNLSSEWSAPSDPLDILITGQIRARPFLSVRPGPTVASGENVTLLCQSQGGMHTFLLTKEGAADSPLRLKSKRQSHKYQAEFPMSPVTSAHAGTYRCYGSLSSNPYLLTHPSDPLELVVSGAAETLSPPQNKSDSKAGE
Chain of LILRA2 (Q8N149 24-449 limits assumed): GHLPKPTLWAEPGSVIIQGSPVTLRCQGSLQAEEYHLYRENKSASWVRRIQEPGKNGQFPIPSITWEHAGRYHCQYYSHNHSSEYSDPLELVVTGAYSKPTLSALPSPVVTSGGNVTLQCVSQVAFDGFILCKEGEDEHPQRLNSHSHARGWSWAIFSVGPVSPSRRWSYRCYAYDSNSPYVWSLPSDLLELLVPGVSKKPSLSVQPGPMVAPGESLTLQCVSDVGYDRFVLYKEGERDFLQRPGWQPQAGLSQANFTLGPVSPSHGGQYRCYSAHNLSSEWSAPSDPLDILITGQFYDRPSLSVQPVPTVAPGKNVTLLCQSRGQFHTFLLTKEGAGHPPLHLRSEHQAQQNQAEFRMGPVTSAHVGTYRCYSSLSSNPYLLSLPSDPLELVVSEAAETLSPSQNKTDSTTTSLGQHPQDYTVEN
Chain of LILRA4 (P59901 24-446 limits assumed): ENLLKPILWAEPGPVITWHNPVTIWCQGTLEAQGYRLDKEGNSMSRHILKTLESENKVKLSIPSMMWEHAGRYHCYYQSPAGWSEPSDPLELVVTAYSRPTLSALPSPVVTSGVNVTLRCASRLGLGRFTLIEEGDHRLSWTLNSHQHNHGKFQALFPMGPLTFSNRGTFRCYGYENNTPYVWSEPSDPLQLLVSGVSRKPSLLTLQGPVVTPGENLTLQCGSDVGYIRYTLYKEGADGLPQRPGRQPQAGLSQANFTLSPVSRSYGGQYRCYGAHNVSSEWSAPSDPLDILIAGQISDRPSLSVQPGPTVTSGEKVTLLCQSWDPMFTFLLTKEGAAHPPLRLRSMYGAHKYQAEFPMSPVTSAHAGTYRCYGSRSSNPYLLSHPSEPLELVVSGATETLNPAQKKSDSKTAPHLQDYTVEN

B1: h193 antibody No. 19 (h193-H3 / h193-K1) (antibody, V domains shown)
VH: EVQLVESGGGLVQPGGSLRLSCAASGFSLSSSYWISWVRQAPGKGLEWIGSIDSGSVGITYYATWAKGRFTISRDNSKNTLYLQMNSLRAEDTAVYYCARHGDNWALDLWGQGTLVTVSS
VL: DIQMTQSPSTLSASVGDRVTITCQASQSINSWLAWYQQKPGKAPKLLIYKASTLASGVPSRFSGSGSGTEFTLTISSLQPDDFATYYCQHGYIRGDLDNVFGGGTKVEIK
As for B1, the EC50 in [1] was 0.294 µg/mL and 1.96 nM. The Kd in [2] turned out to be 2.03 nM. Further, the koff in assay [2] is 0.000294 s⁻¹. Besides, the on-rate constant (kon) in assay [2] was found to be 145000 M⁻¹ s⁻¹. The binding result in [3], in assay [4], in assay [5], in assay [6], in assay [7] and in [8] was “no binding” in each case. The binding result in assay [9], in [10], in assay [11] and in assay [12] was “no binding” in each case.

B2: h193 antibody No. 20 (h193-H3 / h193-K2) (antibody, V domains shown)
VH: B1 VH
VL: B1 VL with I2L, Q3V, A43P, P59S, F83V
On to B2, for which the EC50 in assay [1] was 0.272 µg/mL and 1.81 nM. Moreover, in assay [2], the Kd amounted to 1.67 nM. In assay [2], the koff amounted to 0.00025 s⁻¹. In addition, the kon in assay [2] is 150000 M⁻¹ s⁻¹. Moreover, the binding result in [3], in assay [4], in assay [5], in [6], in [7] and in assay [8] was “no binding” throughout. Also, the binding result in assay [9], in assay [10], in [11] and in [12] was “no binding” each time.

B3: h193 antibody No. 33 (h193-H6 / h193-K3) (antibody, V domains shown)
VH: B1 VH with W65S
VL: B1 VL with Q24R
As for B3, the EC50 in assay [1] was 0.32 µg/mL and 2.13 nM. Further, the Kd in [2] turned out to be 2.33 nM. In addition, in [2], the koff worked out at 0.000345 s⁻¹. Further, the kon in assay [2] is 148000 M⁻¹ s⁻¹. In addition, the binding result in [3], in [4], in assay [5], in [6], in assay [7] and in assay [8] was “no binding” in each case. Moreover, the binding result in assay [9], in [10], in [11] and in assay [12] was “no binding” each time.

B4: h193 antibody No. 32 (h193-H6 / h193-K2) (antibody, V domains shown)
VH: B1 VH with W65S
VL: B1 VL with I2L, Q3V, A43P, P59S, F83V
In the case of B4, in [1], the concentration for a half-maximal effect (EC50) was 0.262 µg/mL and 1.74 nM. Besides, in [2], the equilibrium dissociation constant (Kd) was determined as 2.38 nM. Moreover, in [2], the koff was 0.000362 s⁻¹. Further, the on-rate constant (kon) in assay [2] is 152000 M⁻¹ s⁻¹. The binding result in assay [3], in assay [4], in assay [5], in assay [6], in assay [7] and in [8] was “no binding” in each case. Also, the binding result in [9], in assay [10], in assay [11] and in assay [12] was “no binding” throughout.

B5: h193 antibody No. 28 (h193-H5 / h193-K2) (antibody, V domains shown)
VH: B1 VH with S51V
VL: B1 VL with I2L, Q3V, A43P, P59S, F83V
With B5, the binding result in assay [3], in assay [4], in assay [5], in assay [6], in assay [7] and in assay [8] was “no binding” each time. Also, the binding result in [9], in assay [10], in [11] and in assay [12] was “no binding” throughout.

B6: h193 antibody No. 23 (h193-H4 / h193-K1) (antibody, V domains shown)
VH: B1 VH with I49V, G50S
VL: B1 VL
For B6, the 50% effective concentration (EC50) in assay [1] is 0.461 µg/mL and 3.07 nM. Besides, the Kd in assay [2] is 5.83 nM. For the same molecule, in [2], the koff turned out to be 0.000731 s⁻¹. Further, the on-rate (kon) in assay [2] stood at 125000 M⁻¹ s⁻¹. The binding result in [3], in [4], in assay [5], in assay [6], in [7] and in assay [8] was “no binding” each time. Further, the binding result in assay [9], in [10], in [11] and in assay [12] was “no binding” in each case.

B7: h193 antibody No. 31 (h193-H6 / h193-K1) (antibody, V domains shown)
VH: B1 VH with W65S
VL: B1 VL
Consider B7, for which the EC50 in [1] was 0.314 µg/mL and 2.09 nM. For the same molecule, the Kd in assay [2] amounted to 2.61 nM. In assay [2], the koff turned out to be 0.000376 s⁻¹. The on-rate constant (kon) in assay [2] turned out to be 144000 M⁻¹ s⁻¹. The binding result in assay [3], in assay [4], in assay [5], in assay [6], in assay [7] and in [8] was “no binding” each time. In addition, the binding result in [9], in assay [10], in assay [11] and in assay [12] was “no binding” in each case.

B8: h193 antibody No. 27 (h193-H5 / h193-K1) (antibody, V domains shown)
VH: B1 VH with S51V
VL: B1 VL
In the case of B8, in [1], the concentration for a half-maximal effect (EC50) is > 6 nM. For the same molecule, the binding result in assay [3], in assay [4], in assay [5], in assay [6], in assay [7] and in assay [8] was “no binding” in each case. Moreover, the binding result in assay [9], in [10], in assay [11] and in [12] was “no binding” each time.

B9: h193 antibody No. 24 (h193-H4 / h193-K2) (antibody, V domains shown)
VH: B1 VH with I49V, G50S
VL: B1 VL with I2L, Q3V, A43P, P59S, F83V
Consider B9, for which, in [1], the EC50 is 0.467 µg/mL and 3.11 nM. Also, the equilibrium dissociation constant (Kd) in [2] was determined as 4.41 nM. Moreover, the koff in [2] was found to be 0.000595 s⁻¹. The on-rate (kon) in [2] was 135000 M⁻¹ s⁻¹. The binding result in assay [3], in assay [4], in assay [5], in assay [6], in assay [7] and in [8] was “no binding” throughout. The binding result in assay [9], in assay [10], in [11] and in assay [12] was “no binding” throughout.

As a reminder, the EC50 is the concentration needed to bring the measured effect to its halfway point. The term Kd denotes the equilibrium constant for the complex coming apart. For orientation: koff means a measure of how fast the partners let go of each other. The term kon denotes the second-order rate constant of association.
